In patent publication US10801046B2, “Methods and materials for biosynthesizing multifunctional, multivariate molecules via carbon chain modification” (INVISTA NORTH AMERICA S.A.R.L., priority 2016, dated 2020):

B1: 6TE: Lactobacillus delbrueckii thioesterase (protein, listed as Lactobacillus delbrueckii)
chain: MRYYKDYQLKYVDCGESGQLKLPRMIDLMMESSEGQLAPTLGGASAMKERGRGWVVTQYEFEFTSLPRAGQKVRVWTEAVGYNRFLSYRDFGIEDEAGKDLVIAHSQWVLFDLKSRKLLPSDDKIAEELGAPLLAKIPRFKKLRPKDDYKDEKVYRAYYYDLDSNHHVNNAHYLDWIVDSLPRDFVNSHEPKDLAIKFDKEIKYGDEVVCQVMQETEDSAVKTCHAITRQGELMALCEVNWQKMCFNRD
B2: 14 TE: Paenibacillus lactis thioesterase (protein)
chain: MVEKWTETYTIQSVDADFRGDCRWSSLLSIMQRAADKHIEALGIDREEMIERGLGWMLITLEADMTSIPRDMETIHVETWSRGSKGVLWHRDYRIMNDHGEQVGGARSVWTLVDIQKRKILRPSMFPYDVPIGQDSVGELPSKAVLPEGIELGEAYTTVVRYSGIDVNGHLNNARYADLCMDVLDEPELQGDKVTGFKITYNHEARLKDTIIVRRSGEIEGRIFVQGVSPEGTNFFEAALVKRKQ
modifications: Paenibacillus lactis 154
notes: Paenibacillus lactis thioesterase
B3: SEQ ID NO: 119: Escherichia coli aminotransferase, gene product of ygjG (protein)
chain: MNRLPSSASALACSAHALNLIEKRTLDHEEMKALNREVIEYFKEHVNPGFLEYRKSVTAGGDYGAVEWQAGSLNTLVDTQGQEFIDCLGGFGIFNVGHRNPVVVSAVQNQLAKQPLHSQELLDPLRAMLAKTLAALTPGKLKYSFFCNSGTESVEAALKLAKAYQSPRGKFTFIATSGAFHGKSLGALSATAKSTFRKPFMPLLPGFRHVPFGNIEAMRTALNECKKTGDDVAAVILEPIQGEGGVILPPPGYLTAVRKLCDEFGALMILDEVQTGMGRTGKMFACEHENVQPDILCLAKALGGGVMPIGATIATEEVFSVLFDNPFLHTTTFGGNPLACAAALATINVLLEQNLPAQAEQKGDMLLDGFRQLAREYPDLVQEARGKGMLMAIEFVDNEIGYNFASEMFRQRVLVAGTLNNAKTIRIEPPLTLTIEQCELVIKAARKALAAMRVSVEEA
modifications: Escherichia coli (strain K12)
notes: Escherichia coli aminotransferase, gene product of ygjG
B4: 11TE: Bacillus coagulans thioesterase (protein)
chain: MANGSSLYKGQYHIELRDVDFTKKLKLSALFSLFQDIASLAAEDLGYGIETLEKKYKVAWILTRIRVDILRHPTWDENITIETWPLQPSKIDFDRDFLVKDHTGAVIIKAASKWVVMGLNDRKIKRTESINIHYPENRTERAIEGKFGKFKDFGGLEPAYQKVIGYSDIDFNGHLNNSKYVDYIMDCFLPDFHKRHPIHTIEINFNQEALPGDSITLYKDISKMDEHELYVEGVNQTDHHTIFKSHITIH
modifications: Bacillus coagulans (strain 2-6)
notes: Bacillus coagulans thioesterase
B5: SEQ ID NO: 125: Pseudomonas aeruginosa aminotransferase (protein, listed as Pseudomonas aeruginosa)
chain: MNARLHATSPLGDADLVRADQAHYMHGYHVFDDHRVNGSLNIAAGDGAYIYDTAGNRYLDAVGGMWCTNIGLGREEMARTVAEQTRLLAYSNPFCDMANPRAIELCRKLAELAPGDLDHVFLTTGGSTAVDTAIRLMHYYQNCRGKRAKKHVITRINAYHGSTFLGMSLGGKSADRPAEFDFLDERIHHLACPYYYRAPEGLGEAEFLDGLVDEFERKILELGADRVGAFISEPVFGSGGVIVPPAGYHRRMWELCQRYDVLYISDEVVTSFGRLGHFFASQAVFGVQPDIILTAKGLTSGYQPLGACIFSRRIWEVIAEPDKGRCFSHGFTYSGHPVACAAALKNIEIIEREGLLAHADEVGRYFEERLQSLRDLPIVGDVRGMRFMACVEFVADKASKALFPESLNIGEWVHLRAQKRGLLVRPIVHLNVMSPPLILTREQVDTVVRVLRESIEETVEDLVRAGHR
modifications: Pseudomonas aeruginosa (strain ATCC 15692 / DSM 22644 / CIP 104116 / JCM 14847 / LMG 12228 / 1C / PRS 101 / PAO1)
notes: Pseudomonas aeruginosa aminotransferase
B6: 5TE: Lactobacillus brevis thioesterase (protein)
chain: MAANEFSETHRVVYYEADDTGQLTLAMLINLFVLVSEDQNDALGLSTAFVQSHGVGWVVTQYHLHIDELPRTGAQVTIKTRATAYNRYFAYREYWLLDDAGQVLAYGEGIWVTMSYATRKITTIPAEVMAPYHSEEQTRLPRLPRPDHFDEAVNQTLKPYTVRYFDIDGNGHVNNAHYFDWMLDVLPATFLRAHHPTDVKIRFENEVQYGHQVTSELSQAAALTTQHMIKVGDLTAVKATIQWDNR
modifications: Lactobacillus brevis (strain ATCC 367 / JCM 1170)
notes: Lactobacillus brevis thioesterase

Legend:
[1] = system: heptanedioyl-[acp] or heptanedioyl-[acp] methyl ester; assay: Thioesterase enzyme activity assay, release of holo-ACP monitored by absorbance at 412 nm; type: biochemical; settings: purified thioesterase, 37° C., 30 min, FIG. 41
Method: The thioesterases were expressed and purified following procedures disclosed herein. The enzyme activity assay was performed in duplicate or triplicate in a buffer having heptanedioyl-[acp] or heptanedioyl-[acp] methyl ester as substrate. The enzyme activity assay reaction was initiated by adding purified thioesterase gene products to the assay buffer and incubating at 37° C. for 30 min. The release of holo-ACP was monitored by absorbance at 412 nm. The absorbance associated with the empty vector control is very low. Many of the gene products of thioesterases accepted heptanedioyl-[acp] or heptanedioyl-[acp] methyl ester as substrate as confirmed via relative spectrophotometry (see FIG. 41).

[2] = Aminotransferase activity, heptane-1,7-diamine to 7-aminoheptanal, L-alanine formation by RP-HPLC; type: biochemical; settings: cell free extract, 10 mM substrate, 25° C., 4 h, against empty vector control, FIG. 50
Method: A sequence encoding an N-terminal His-tag was added to the Chromobacterium violaceum, Pseudomonas aeruginosa, Pseudomonas syringae, Rhodobacter sphaeroides, Escherichia coli, and Vibrio fluvialis genes encoding the aminotransferases of SEQ ID NOs: 116 (GenBank Accession No. AAQ59697.1), 119 (RefSeq Accession No. NP_417544.5), 125 (GenBank Accession No. AAGO8191.1), 126 (GenBank Accession No. AAY39893.1), 127 (GenBank Accession No. ABA81135.1), and 128 (GenBank Accession No. AEA39183.1), respectively such that N-terminal HIS tagged aminotransferases could be produced. The modified genes were cloned into a pET21a expression vector under the T7 promoter. Each expression vector was transformed into a BL21[DE3] E. coli host. Each resulting recombinant E. coli strain were cultivated at 37° C. in a 250 mL shake flask culture containing 50 mL LB media and antibiotic selection pressure, with shaking at 230 rpm. Each culture was induced overnight at 16° C. using 1 mM IPTG.
The pellet from each induced shake flask culture was harvested via centrifugation. Each pellet was resuspended and lysed via sonication. The cell debris was separated from the supernatant via centrifugation and the cell free extract was used immediately in enzyme activity assays.
Enzyme activity assays in the reverse direction (i.e., heptane-1,7-diamine to 7-aminoheptanal) were performed in a buffer composed of a final concentration of 50 mM HEPES buffer (pH=7.5), 10 mM heptane-1,7-diamine, 10 mM pyruvate, and 100 μM pyridoxyl 5′ phosphate. Each enzyme activity assay reaction was initiated by adding cell free extract of the aminotransferase gene product or the empty vector control to the assay buffer containing the heptane-1,7-diamine and then incubated at 25° C. for 4 h, with shaking at 250 rpm. The formation of L-alanine was quantified via RP-HPLC.

[3] = Aminotransferase activity, N7-acetyl-1,7-diaminoheptane to N7-acetyl-7-aminoheptanal, L-alanine formation by RP-HPLC; type: biochemical; settings: cell free extract, 10 mM substrate, 25° C., 4 h, against empty vector control, FIG. 51
Method: The activity of the N-terminal His-tagged aminotransferases of SEQ ID NOs: 116 (GenBank Accession No. AAQ59697.1), 119 (RefSeq Accession No. NP_417544.5), 125 (GenBank Accession No. AAGO8191.1), 126 (GenBank Accession No. AAY39893.1), 127 (GenBank Accession No. ABA81135.1), and 128 (GenBank Accession No. AEA39183.1) (see Example 6) for converting N7-acetyl-1,7-diaminoheptane to N7-acetyl-7-aminoheptanal was assayed using a buffer composed of a final concentration of 50 mM HEPES buffer (pH=7.5), 10 mM N7-acetyl-1,7-diaminoheptane, 10 mM pyruvate and 100 μM pyridoxyl 5′ phosphate. Each enzyme activity assay reaction was initiated by adding a cell free extract of the aminotransferases or the empty vector control to the assay buffer containing the N7-acetyl-1,7-diaminoheptane then incubated at 25° C. for 4 h, with shaking at 250 rpm. The formation of L-alanine was quantified via RP-HPLC.

heptanedioyl-ACP = type: cell-based, Escherichia coli; settings: top 150 hits screened in vivo

Molecule	synthesis of holo-ACP using heptanedioyl-[acp] methyl ester as substrate, compared to using heptanedioyl-[acp] as substrate [1]	acceptance of heptane-1,7-diamine as substrate, forming 7-aminoheptanal [2]	acceptance of N7-acetyl-1,7-diaminoheptane as substrate, forming N7-acetyl-7-aminoheptanal [3]	activity toward heptanedioyl-ACP in vivo (heptanedioyl-ACP)
B1	more efficiently			
B2	more efficiently			
B3		accepted heptane-1,7-diamine as substrate	accepted N7-acetyl-1,7-diaminoheptane as a substrate	
B4	more efficiently			displayed considerable activity toward heptanedioyl-ACP
B5		accepted heptane-1,7-diamine as substrate	accepted N7-acetyl-1,7-diaminoheptane as a substrate	
B6	more efficiently			
